From patent US20110263827A1 (AbbVie / Abbott, published 2011)

Assays:
[1] = molecular target: T1, ErbB3 (UniProt P21860 20-643, limits assumed, biotinylated); test: direct bind ELISA, C-term VD;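 note: ELISA with antibody or DVD-Ig preparations applied to target antigen-coated plates for 1 h at room temperature, TMB colour development, absorbance read at 450 nm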
T1 construct: ELISA antigen

[2] = molecular target: T2, EGFR (UniProt P00533 25-645, limits assumed, biotinylated); test: direct bind ELISA, N-term VD;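 note: antibody or DVD-Ig preparations bound to immobilized target antigen on ELISA plates, 1 h at room temperature, TMB detection read as absorbance at 450 nm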
T2 construct: ELISA antigen; construct not described

EC50 [1] [nM]	EC50 [2] [nM]	Binder
1.38	4.43	DVD771 (bispecific antibody, DVD-Ig; HC L, LC L; variable parts only) VH: QVQLQESGPGLVKPSQTLSLTCTVSGYSISSDFAWNWIRQPPGKGLEWMGYISYSGNTRYQPSLKSRITISRDTSKNQFFLKLNSVTAADTATYYCVTAGRGFPYWGQGTLVTVSSASTKGPSVFPLAPEVQLVESGGGLVQPGGSLRLSCAASGFTFSIYSMNWVRQAPGKGLEWVSYISSSSSTIYYADSVKGRFTISRDNAKNSLYLQMNSLRDEDTAVYYCARDRGDFDAFDIWGQGTMVTVSS VL: DIQMTQSPSSMSVSVGDRVTITCHSSQDINSNIGWLQQKPGKSFKGLIYHGTNLDDGVPSRFSGSGSGTDYTLTISSLQPEDFATYYCVQYAQFPWTFGGGTKLEIKRTVAAPSVFIFPPDIQMTQSPSSLSASVGDRVTITCQASQDITNYLNWYQQKPGKAPKLLIYDASNLETGVPSRFSGSGSGTDFTFTISSLQPEDIATYNCQQCENFPITFGQGTRLEIKR
3.28	3.91	DVD801 (bispecific antibody, DVD-Ig; HC L, LC S; variable parts only) VH: QVQLQESGPGLVKPSQTLSLTCTVSGYSISSDFAWNWIRQPPGKGLEWMGYISYSGNTRYQPSLKSRITISRDTSKNQFFLKLNSVTAADTATYYCVTAGRGFPYWGQGTLVTVSSASTKGPSVFPLAPEVQLVESGGGLVQPGGSLRLSCAASGFTFSIYSMNWVRQAPGKGLEWVSYISSSSSTIYYADSVKGRFTISRDNAKNSLYLQMNSLRDEDTAVYYCARDRGDFDAFDIWGQGTMVTVSS VL: DIQMTQSPSSMSVSVGDRVTITCHSSQDINSNIGWLQQKPGKSFKGLIYHGTNLDDGVPSRFSGSGSGTDYTLTISSLQPEDFATYYCVQYAQFPWTFGGGTKLEIKRTVAAPDIQMTQSPSSLSASVGDRVTITCQASQDITNYLNWYQQKPGKAPKLLIYDASNLETGVPSRFSGSGSGTDFTFTISSLQPEDIATYNCQQCENFPITFGQGTRLEIKR
1.42	4.6	DVD831 (bispecific antibody, DVD-Ig; HC S, LC L; variable parts only) VH: QVQLQESGPGLVKPSQTLSLTCTVSGYSISSDFAWNWIRQPPGKGLEWMGYISYSGNTRYQPSLKSRITISRDTSKNQFFLKLNSVTAADTATYYCVTAGRGFPYWGQGTLVTVSSASTKGPEVQLVESGGGLVQPGGSLRLSCAASGFTFSIYSMNWVRQAPGKGLEWVSYISSSSSTIYYADSVKGRFTISRDNAKNSLYLQMNSLRDEDTAVYYCARDRGDFDAFDIWGQGTMVTVSS VL: DIQMTQSPSSMSVSVGDRVTITCHSSQDINSNIGWLQQKPGKSFKGLIYHGTNLDDGVPSRFSGSGSGTDYTLTISSLQPEDFATYYCVQYAQFPWTFGGGTKLEIKRTVAAPSVFIFPPDIQMTQSPSSLSASVGDRVTITCQASQDITNYLNWYQQKPGKAPKLLIYDASNLETGVPSRFSGSGSGTDFTFTISSLQPEDIATYNCQQCENFPITFGQGTRLEIKR
8.23	3.59	DVD769 (bispecific antibody, DVD-Ig; HC L, LC L; variable parts only) VH: QVQLQESGPGLVKPSQTLSLTCTVSGYSISSDFAWNWIRQPPGKGLEWMGYISYSGNTRYQPSLKSRITISRDTSKNQFFLKLNSVTAADTATYYCVTAGRGFPYWGQGTLVTVSSASTKGPSVFPLAPQVQLQQWGAGLLKPSETLSLTCAVYGGSFSGYYWSWIRQPPGKGLEWIGEINHSGSTNYNPSLKSRVTISVETSKNQFSLKLSSVTAADTAVYYCARDKWTWYFDLWGRGTLVTVSS VL: DIQMTQSPSSMSVSVGDRVTITCHSSQDINSNIGWLQQKPGKSFKGLIYHGTNLDDGVPSRFSGSGSGTDYTLTISSLQPEDFATYYCVQYAQFPWTFGGGTKLEIKRTVAAPSVFIFPPDIEMTQSPDSLAVSLGERATINCRSSQSVLYSSSNRNYLAWYQQNPGQPPKLLIYWASTRESGVPDRFSGSGSGTDFTLTISSLQAEDVAVYYCQQYYSTPRTFGQGTKVEIKR
20	5.76	DVD799 (bispecific antibody, DVD-Ig; HC L, LC S; variable parts only) VH: QVQLQESGPGLVKPSQTLSLTCTVSGYSISSDFAWNWIRQPPGKGLEWMGYISYSGNTRYQPSLKSRITISRDTSKNQFFLKLNSVTAADTATYYCVTAGRGFPYWGQGTLVTVSSASTKGPSVFPLAPQVQLQQWGAGLLKPSETLSLTCAVYGGSFSGYYWSWIRQPPGKGLEWIGEINHSGSTNYNPSLKSRVTISVETSKNQFSLKLSSVTAADTAVYYCARDKWTWYFDLWGRGTLVTVSS VL: DIQMTQSPSSMSVSVGDRVTITCHSSQDINSNIGWLQQKPGKSFKGLIYHGTNLDDGVPSRFSGSGSGTDYTLTISSLQPEDFATYYCVQYAQFPWTFGGGTKLEIKRTVAAPDIEMTQSPDSLAVSLGERATINCRSSQSVLYSSSNRNYLAWYQQNPGQPPKLLIYWASTRESGVPDRFSGSGSGTDFTLTISSLQAEDVAVYYCQQYYSTPRTFGQGTKVEIKR
41.4	3.81	DVD829 (bispecific antibody, DVD-Ig; HC S, LC L; variable parts only) VH: QVQLQESGPGLVKPSQTLSLTCTVSGYSISSDFAWNWIRQPPGKGLEWMGYISYSGNTRYQPSLKSRITISRDTSKNQFFLKLNSVTAADTATYYCVTAGRGFPYWGQGTLVTVSSASTKGPQVQLQQWGAGLLKPSETLSLTCAVYGGSFSGYYWSWIRQPPGKGLEWIGEINHSGSTNYNPSLKSRVTISVETSKNQFSLKLSSVTAADTAVYYCARDKWTWYFDLWGRGTLVTVSS VL: DIQMTQSPSSMSVSVGDRVTITCHSSQDINSNIGWLQQKPGKSFKGLIYHGTNLDDGVPSRFSGSGSGTDYTLTISSLQPEDFATYYCVQYAQFPWTFGGGTKLEIKRTVAAPSVFIFPPDIEMTQSPDSLAVSLGERATINCRSSQSVLYSSSNRNYLAWYQQNPGQPPKLLIYWASTRESGVPDRFSGSGSGTDFTLTISSLQAEDVAVYYCQQYYSTPRTFGQGTKVEIKR
481	3.82	DVD329 (bispecific antibody, DVD-Ig; HC S, LC S; variable parts only) VH: QVQLQESGPGLVKPSQTLSLTCTVSGYSISSDFAWNWIRQPPGKGLEWMGYISYSGNTRYQPSLKSRITISRDTSKNQFFLKLNSVTAADTATYYCVTAGRGFPYWGQGTLVTVSSASTKGPEVQLVESGGGLVQPGGSLRLSCAASGFTFSIYSMNWVRQAPGKGLEWVSYISSSSSTIYYADSVKGRFTISRDNAKNSLYLQMNSLRDEDTAVYYCARDRGDFDAFDIWGQGTMVTVSS VL: DIQMTQSPSSMSVSVGDRVTITCHSSQDINSNIGWLQQKPGKSFKGLIYHGTNLDDGVPSRFSGSGSGTDYTLTISSLQPEDFATYYCVQYAQFPWTFGGGTKLEIKRTVAAPDIQMTQSPSSLSASVGDRVTITCQASQDITNYLNWYQQKPGKAPKLLIYDASNLETGVPSRFSGSGSGTDFTFTISSLQPEDIATYNCQQCENFPITFGQGTRLEIKR
14.4	3.78	DVD787 (bispecific antibody, DVD-Ig; HC L, LC L; variable parts only) VH: QVQLQESGPGLVKPSQTLSLTCTVSGYSISSDFAWNWIRQPPGKGLEWMGYISYSGNTRYQPSLKSRITISRDTSKNQFFLKLNSVTAADTATYYCVTAGRGFPYWGQGTLVTVSSASTKGPSVFPLAPEVQLLESGGGLVQPGGSLRLSCAASGFTFSHYVMAWVRQAPGKGLEWVSSISSSGGWTLYADSVKGRFTISRDNSKNTLYLQMNSLRAEDTAVYYCTRGLKMATIFDYWGQGTLVTVSS VL: DIQMTQSPSSMSVSVGDRVTITCHSSQDINSNIGWLQQKPGKSFKGLIYHGTNLDDGVPSRFSGSGSGTDYTLTISSLQPEDFATYYCVQYAQFPWTFGGGTKLEIKRTVAAPSVFIFPPQSALTQPASVSGSPGQSITISCTGTSSDVGSYNVVSWYQQHPGKAPKLIIYEVSQRPSGVSNRFSGSKSGNTASLTISGLQTEDEADYYCCSYAGSSIFVIFGGGTKVTVLG
12.9	2.92	DVD847 (bispecific antibody, DVD-Ig; HC S, LC L; variable parts only) VH: QVQLQESGPGLVKPSQTLSLTCTVSGYSISSDFAWNWIRQPPGKGLEWMGYISYSGNTRYQPSLKSRITISRDTSKNQFFLKLNSVTAADTATYYCVTAGRGFPYWGQGTLVTVSSASTKGPEVQLLESGGGLVQPGGSLRLSCAASGFTFSHYVMAWVRQAPGKGLEWVSSISSSGGWTLYADSVKGRFTISRDNSKNTLYLQMNSLRAEDTAVYYCTRGLKMATIFDYWGQGTLVTVSS VL: DIQMTQSPSSMSVSVGDRVTITCHSSQDINSNIGWLQQKPGKSFKGLIYHGTNLDDGVPSRFSGSGSGTDYTLTISSLQPEDFATYYCVQYAQFPWTFGGGTKLEIKRTVAAPSVFIFPPQSALTQPASVSGSPGQSITISCTGTSSDVGSYNVVSWYQQHPGKAPKLIIYEVSQRPSGVSNRFSGSKSGNTASLTISGLQTEDEADYYCCSYAGSSIFVIFGGGTKVTVLG
18.8	5.33	DVD817 (bispecific antibody, DVD-Ig; HC L, LC S; variable parts only) VH: QVQLQESGPGLVKPSQTLSLTCTVSGYSISSDFAWNWIRQPPGKGLEWMGYISYSGNTRYQPSLKSRITISRDTSKNQFFLKLNSVTAADTATYYCVTAGRGFPYWGQGTLVTVSSASTKGPSVFPLAPEVQLLESGGGLVQPGGSLRLSCAASGFTFSHYVMAWVRQAPGKGLEWVSSISSSGGWTLYADSVKGRFTISRDNSKNTLYLQMNSLRAEDTAVYYCTRGLKMATIFDYWGQGTLVTVSS VL: DIQMTQSPSSMSVSVGDRVTITCHSSQDINSNIGWLQQKPGKSFKGLIYHGTNLDDGVPSRFSGSGSGTDYTLTISSLQPEDFATYYCVQYAQFPWTFGGGTKLEIKRTVAAPQSALTQPASVSGSPGQSITISCTGTSSDVGSYNVVSWYQQHPGKAPKLIIYEVSQRPSGVSNRFSGSKSGNTASLTISGLQTEDEADYYCCSYAGSSIFVIFGGGTKVTVLG
485	3.98	DVD327 (bispecific antibody, DVD-Ig; HC S, LC S; variable parts only) VH: QVQLQESGPGLVKPSQTLSLTCTVSGYSISSDFAWNWIRQPPGKGLEWMGYISYSGNTRYQPSLKSRITISRDTSKNQFFLKLNSVTAADTATYYCVTAGRGFPYWGQGTLVTVSSASTKGPQVQLQQWGAGLLKPSETLSLTCAVYGGSFSGYYWSWIRQPPGKGLEWIGEINHSGSTNYNPSLKSRVTISVETSKNQFSLKLSSVTAADTAVYYCARDKWTWYFDLWGRGTLVTVSS VL: DIQMTQSPSSMSVSVGDRVTITCHSSQDINSNIGWLQQKPGKSFKGLIYHGTNLDDGVPSRFSGSGSGTDYTLTISSLQPEDFATYYCVQYAQFPWTFGGGTKLEIKRTVAAPDIEMTQSPDSLAVSLGERATINCRSSQSVLYSSSNRNYLAWYQQNPGQPPKLLIYWASTRESGVPDRFSGSGSGTDFTLTISSLQAEDVAVYYCQQYYSTPRTFGQGTKVEIKR
